T1: inactivated MKK4, P45985
T1 chain: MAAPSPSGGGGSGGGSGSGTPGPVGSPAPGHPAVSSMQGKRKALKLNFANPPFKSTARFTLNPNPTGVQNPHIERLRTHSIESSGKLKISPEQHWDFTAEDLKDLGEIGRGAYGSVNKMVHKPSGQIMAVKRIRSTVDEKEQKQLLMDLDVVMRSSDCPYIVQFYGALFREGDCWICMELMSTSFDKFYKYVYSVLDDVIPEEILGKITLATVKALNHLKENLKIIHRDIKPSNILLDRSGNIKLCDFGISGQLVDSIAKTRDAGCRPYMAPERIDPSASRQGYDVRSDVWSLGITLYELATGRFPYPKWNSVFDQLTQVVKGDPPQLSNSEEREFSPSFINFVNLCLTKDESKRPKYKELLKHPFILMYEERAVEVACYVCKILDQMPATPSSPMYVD


Assays:
[1] = target: GST-MKK4(K113A) [GST: P08515]
[2] = target: myelin basic protein (UBI #13-104)
[3] = target: GST-MKK7β1(K149A), O14733
inactivated MKK4, P45985 = target: T1, inactivated MKK4, P45985

Row | Protein | phosphorylation of substrate coated on the plate (ELISA-based assay, time-resolved fluorescence) [1] | phosphorylation of myelin basic protein (radioactive counts, Multiscreen TCA in-plate assay) [2] | phosphorylation of substrate coated on the plate (ELISA-based assay, time-resolved fluorescence) [3] | in vitro kinase cascade: phosphorylation/activation of MKK4, read as phosphorylated GST-JNK1β1(K55A) (phospho-specific JNK antibody, fluorescence) (inactivated MKK4, P45985) | phosphorylation of substrate coated on the plate (fluorescence units, ELISA-based assay with phospho-threonine antibody, time-resolved fluorescence) [1] | specific activity, ratio against GST-MLK7KD/LZ (ELISA-based phosphorylation assay) [1] | phosphorylation of substrate coated on the plate (fluorescence units, ELISA-based assay with phospho-threonine antibody, time-resolved fluorescence) [3] | specific activity, ratio against GST-MLK7KD/LZ (ELISA-based phosphorylation assay) [3] | phosphorylation of GST-JNK1β1(K55A) by activated MKK4 (phospho-specific JNK antibody, fluorescence) (GST-JNK1β1(K55A), P45983)
1 | baculoviral GST-MLK3KD (protein) LRLEEVIGIGGFGKVYRGSWRGELVAVKAARQDPDEDISVTAESVRQEARLFAMLAHPNIIALKAVCLEEPNLCLVMEYAAGGPLSRALAGRRVPPHVLVNWAVQIARGMHYLHCEALVPVIHRDLKSNNILLLQPIESDDMEHKTLKITDFGLAREWHKTTQMSAAGTYAWMAPEVIKASTFSKGSDVWSFGVLLWELLTGEVPYRGIDCLAVAYGVAVNKLTLPIPSTCPEPFAQLMADCWAQDPHRRPDFASILQQLEAL | both GST-MLK7 forms were less active than GST-MLK3KD (control enzyme) | Baculoviral GST-MLK3KD was used as the control enzyme in this analysis to show phosphorylation of myelin basic protein by a member of the mixed lineage kinase family | both GST-MLK7 forms were less active than GST-MLK3KD (control enzyme) | – | – | – | – | – | –
2 | baculoviral human GST-MLK7KD (protein) PANYVAPCRPAASPAPPPSRPSSPVHVAFERLELKELIGAGGFGQVYRATWQGQEVAVKAARQDPEQDAAAAAESVRREARLFAMLRHPNIIELRGVCLQQPHLCLVLEFARGGALNRALAAANAAPDPRAPGPRRARRIPPHVLVNWAVQIARGMLYLHEEAFVPILHRDLKSSNILLLEKIEHDDICNKTLKITDFGLAREWHRTTKMSTAGTYAWMAPEVIKSSLFSKGSDIWSYGVLLWELLTGEVPYRGIDGLAVAYGVAVNKLTLPIPSTCPEPFAKLMKECWQQDPHIRPSFALILEQLTAIEGAVMTEMPQESFHS | – | Both GST-MLK7KD and GST-MLK7KD/LZ were able to phosphorylate myelin basic protein | – | both GST-MLK7KD and GST-MLK7KD/LZ were able to phosphorylate MKK4 and as a consequence of this phosphorylation event, MKK4 was activated | both forms of baculoviral GST-MLK7 catalyzed the phosphorylation of the two MKK protein substrates, GST-MKK4(K113A) and GST-MKK7(K149A) | GST-MLK7KD displaying about 2× higher activity than GST-MLK7KD/LZ | both forms of baculoviral GST-MLK7 catalyzed the phosphorylation of the two MKK protein substrates, GST-MKK4(K113A) and GST-MKK7(K149A) | GST-MLK7KD displaying about 2× higher activity than GST-MLK7KD/LZ | –
3 | inactivated MKK4 (protein) MAAPSPSGGGGSGGGSGSGTPGPVGSPAPGHPAVSSMQGKRKALKLNFANPPFKSTARFTLNPNPTGVQNPHIERLRTHSIESSGKLKISPEQHWDFTAEDLKDLGEIGRGAYGSVNKMVHKPSGQIMAVKRIRSTVDEKEQKQLLMDLDVVMRSSDCPYIVQFYGALFREGDCWICMELMSTSFDKFYKYVYSVLDDVIPEEILGKITLATVKALNHLKENLKIIHRDIKPSNILLDRSGNIKLCDFGISGQLVDSIAKTRDAGCRPYMAPERIDPSASRQGYDVRSDVWSLGITLYELATGRFPYPKWNSVFDQLTQVVKGDPPQLSNSEEREFSPSFINFVNLCLTKDESKRPKYKELLKHPFILMYEERAVEVACYVCKILDQMPATPSSPMYVD | – | – | – | – | – | – | – | – | MKK4 was activated and was able to phosphorylate its protein substrate GST-JNK1β1(K55A)

Source: patent US20040185460
